Test results reported in the Human Domainome abundance scans (Beltran et al. 2025).
± gives the uncertainty stated by the source.

B1: Dynamin-binding protein, residues 146 to 206; numbered along this chain, Q6XZF7 (parent)
chain: SMGQARALMGLSAQLDEELDFREGDVITIIGVPEPGWFEGELEGRRGIFPEGFVELLGPLR
B2: CD2-associated protein, residues 109 to 169; numbered along this chain, Q9Y5K6 (parent)
chain: KKRQCKVLFEYIPQNEDELELKVGDIIDINEEVEEGWWSGTLNNKLGLFPSNFVKELEVTD

Variants of: B1
Test: abundance fitness (aPCA) (normalised: wild type 0, dead -1); higher = more abundant; growth selection in yeast, the domain comes from the species named
Conditions: Homo sapiens
Variant R61D has an abundance fitness of -0.053 ± 0.084. M2I showed an abundance fitness of -0.03 ± 0.058. G52R gave an abundance fitness of 0.117 ± 0.18. Work on V54E yielded an abundance fitness of -0.81 ± 0.38. In the case of G44Q, the abundance fitness is reported as -0.683 ± 0.32. Variant V26G has an abundance fitness of -0.687 ± 0.056. Variant P50I has an abundance fitness of -0.691 ± 0.082. Variant F38H has an abundance fitness of -1.08 ± 0.16. For L42D, the abundance fitness was -0.975 ± 0.15. Work on V26H yielded an abundance fitness of -0.279 ± 0.067. G36R gave an abundance fitness of -0.709 ± 0.077. In the case of V32P, the abundance fitness is reported as -1.04 ± 0.23. V32K gave an abundance fitness of -0.349 ± 0.19. A13P showed an abundance fitness of 0.013 ± 0.078. For F21E, the abundance fitness was -0.481 ± 0.17. Variant S1T has an abundance fitness of -0.092 ± 0.11. With G10R the abundance fitness was -0.014 ± 0.055. P33V gave an abundance fitness of -0.435 ± 0.17. L57Q showed an abundance fitness of -0.258 ± 0.16. For I29Y, the abundance fitness was -0.997 ± 0.27. Q14I gave an abundance fitness of -0.354 ± 0.062. P35Q gave an abundance fitness of -0.203 ± 0.13. With L19H the abundance fitness was -0.768 ± 0.15. G10E showed an abundance fitness of -0.14 ± 0.09. For P33F, the abundance fitness was -0.693 ± 0.33. In the case of P50Q, the abundance fitness is reported as -0.314 ± 0.13. In the case of L42P, the abundance fitness is reported as -0.5 ± 0.1. In the case of I48G, the abundance fitness is reported as -1.01 ± 0.095. Variant D25K has an abundance fitness of -1.03 ± 0.21. In the case of G47L, the abundance fitness is reported as -0.696 ± 0.11. For L56V, the abundance fitness was -0.152 ± 0.087. S1Y showed an abundance fitness of 0.064 ± 0.06. In the case of V26N, the abundance fitness is reported as -0.594 ± 0.078. R61I showed an abundance fitness of -0.135 ± 0.13. Work on P35I yielded an abundance fitness of -0.642 ± 0.13. S1W showed an abundance fitness of -0.16 ± 0.27. In the case of L57I, the abundance fitness is reported as -0.176 ± 0.045. P50G gave an abundance fitness of -0.621 ± 0.072. R61G showed an abundance fitness of -0.123 ± 0.096. V26T gave an abundance fitness of -0.319 ± 0.075. Work on E39S yielded an abundance fitness of -0.339 ± 0.044. Variant A7F has an abundance fitness of -1.01 ± 0.21. Variant R61T has an abundance fitness of -0.046 ± 0.072. For I30Y, the abundance fitness was -0.286 ± 0.15. Variant F53Y has an abundance fitness of 0.059 ± 0.091. In the case of T28E, the abundance fitness is reported as 0.016 ± 0.17. With W37H the abundance fitness was -0.326 ± 0.074.

Variants of: B2
Test: as above
Conditions: Homo sapiens
Variant S39A has an abundance fitness of -0.349 ± 0.11. In the case of N52F, the abundance fitness is reported as -0.228 ± 0.24. Work on K6A yielded an abundance fitness of 0.112 ± 0.053. Work on W37G yielded an abundance fitness of -0.74 ± 0.43. With K6R the abundance fitness was 0.122 ± 0.054. Variant I27N has an abundance fitness of -0.542 ± 0.45. With T60C the abundance fitness was -0.183 ± 0.19. Variant T41S has an abundance fitness of -0.35 ± 0.15. With G24I the abundance fitness was -0.226 ± 0.22. With N30M the abundance fitness was -0.151 ± 0.18. Work on K22W yielded an abundance fitness of -0.448 ± 0.23. For K22S, the abundance fitness was -0.273 ± 0.15. With V59F the abundance fitness was 0.229 ± 0.14. For N15A, the abundance fitness was 0.041 ± 0.14. G36V showed an abundance fitness of -0.651 ± 0.12. D25R showed an abundance fitness of -0.484 ± 0.22. For D25L, the abundance fitness was -0.856 ± 0.32. Work on G24D yielded an abundance fitness of -0.252 ± 0.25. With V54P the abundance fitness was -0.816 ± 0.27. For T60W, the abundance fitness was -0.198 ± 0.3. Variant K45M has an abundance fitness of -0.55 ± 0.28. Work on T60V yielded an abundance fitness of -0.399 ± 0.27. With G40Q the abundance fitness was -1.03 ± 0.43. In the case of K55E, the abundance fitness is reported as 0.127 ± 0.075. Work on I26C yielded an abundance fitness of -0.722 ± 0.29. For E18P, the abundance fitness was -0.986 ± 0.34. Work on I12W yielded an abundance fitness of -0.311 ± 0.15. E31I gave an abundance fitness of -0.116 ± 0.44. V54M showed an abundance fitness of -0.63 ± 0.23. Variant E58W has an abundance fitness of 0.098 ± 0.16. With N52A the abundance fitness was -0.067 ± 0.092. In the case of L48N, the abundance fitness is reported as -0.187 ± 0.14. E10A gave an abundance fitness of -0.333 ± 0.15. For V7M, the abundance fitness was -0.884 ± 0.24. F53K showed an abundance fitness of -0.031 ± 0.15. In the case of G36Y, the abundance fitness is reported as -0.276 ± 0.076. T41L gave an abundance fitness of -0.318 ± 0.095. Work on P50W yielded an abundance fitness of -0.764 ± 0.14. In the case of E18K, the abundance fitness is reported as -0.411 ± 0.41. Variant L57W has an abundance fitness of -0.486 ± 0.18. In the case of D28G, the abundance fitness is reported as -0.581 ± 0.13. Work on V33K yielded an abundance fitness of -0.262 ± 0.15. In the case of Q14A, the abundance fitness is reported as -0.203 ± 0.39. I26V showed an abundance fitness of -0.262 ± 0.11. Variant W38D has an abundance fitness of -0.587 ± 0.33. With E58C the abundance fitness was -0.073 ± 0.12. In the case of D17Q, the abundance fitness is reported as -0.313 ± 0.36. With E31Q the abundance fitness was -0.23 ± 0.15. Work on S39D yielded an abundance fitness of -0.696 ± 0.28. Variant L48M has an abundance fitness of -0.107 ± 0.08. Variant Q14G has an abundance fitness of -0.337 ± 0.18. In the case of E35P, the abundance fitness is reported as -0.139 ± 0.22. With L57T the abundance fitness was -0.269 ± 0.13. For E31V, the abundance fitness was -0.354 ± 0.1. For E16D, the abundance fitness was -0.203 ± 0.27. F9M showed an abundance fitness of 0.244 ± 0.1. For S51W, the abundance fitness was -0.093 ± 0.11. C5M showed an abundance fitness of -0.419 ± 0.13. Variant L8R has an abundance fitness of -0.345 ± 0.17. In the case of K22R, the abundance fitness is reported as -0.244 ± 0.16. For G24V, the abundance fitness was -0.615 ± 0.26. For E16R, the abundance fitness was 0.017 ± 0.14. With D61Q the abundance fitness was -0.014 ± 0.24. F53A showed an abundance fitness of 0.015 ± 0.13. L48Y gave an abundance fitness of -0.033 ± 0.082. L46K showed an abundance fitness of 0.069 ± 0.099. T41Y gave an abundance fitness of -0.065 ± 0.16. Variant F49W has an abundance fitness of -1.01 ± 0.25. In the case of L19E, the abundance fitness is reported as -0.641 ± 0.34. In the case of K22T, the abundance fitness is reported as 0.216 ± 0.24. Work on K22I yielded an abundance fitness of -0.308 ± 0.44. For K2G, the abundance fitness was -0.007 ± 0.36. With E34W the abundance fitness was -0.347 ± 0.15. In the case of E18R, the abundance fitness is reported as -0.792 ± 0.22. L57P gave an abundance fitness of -0.508 ± 0.23. With K2R the abundance fitness was -0.334 ± 0.23. With I27E the abundance fitness was -0.951 ± 0.43. With I26P the abundance fitness was -0.818 ± 0.46. V7L gave an abundance fitness of -0.542 ± 0.14. For E32S, the abundance fitness was -0.091 ± 0.16. Variant Y11T has an abundance fitness of -0.458 ± 0.34. In the case of C5F, the abundance fitness is reported as -0.367 ± 0.073. V33A showed an abundance fitness of -0.132 ± 0.23. With C5A the abundance fitness was 0.335 ± 0.062. W37E showed an abundance fitness of 0 ± 0.24. For W38A, the abundance fitness was -0.752 ± 0.22. For V7G, the abundance fitness was -1.24 ± 0.32. E20K showed an abundance fitness of -0.002 ± 0.46. Variant V7S has an abundance fitness of -0.399 ± 0.13. E10C showed an abundance fitness of -0.266 ± 0.23. For I27H, the abundance fitness was -0.614 ± 0.42. Variant D28R has an abundance fitness of -0.515 ± 0.12. For E34L, the abundance fitness was -0.611 ± 0.28. For T41N, the abundance fitness was -0.011 ± 0.45. In the case of L48S, the abundance fitness is reported as -0.438 ± 0.091. Variant N15E has an abundance fitness of -0.275 ± 0.21. N43C gave an abundance fitness of -0.19 ± 0.37. K45R gave an abundance fitness of -0.066 ± 0.078. For P50Q, the abundance fitness was -0.279 ± 0.17. Work on I12F yielded an abundance fitness of -0.026 ± 0.21. V23K gave an abundance fitness of 0.117 ± 0.19. Work on D25T yielded an abundance fitness of -0.495 ± 0.25. Variant V23L has an abundance fitness of -0.369 ± 0.2. In the case of W38T, the abundance fitness is reported as -0.618 ± 0.15. F9L gave an abundance fitness of 0.283 ± 0.086. In the case of L42Y, the abundance fitness is reported as -0.01 ± 0.2. In the case of I12Y, the abundance fitness is reported as 0.065 ± 0.23. Variant W38Q has an abundance fitness of -0.55 ± 0.15. E58Y showed an abundance fitness of -0.045 ± 0.14. In the case of R3C, the abundance fitness is reported as -0.38 ± 0.069. For T41K, the abundance fitness was -0.229 ± 0.3. With F53W the abundance fitness was -0.56 ± 0.31. Variant S39E has an abundance fitness of -0.097 ± 0.15. With W38N the abundance fitness was -0.605 ± 0.26. F49L gave an abundance fitness of -0.77 ± 0.15. With D61V the abundance fitness was -0.312 ± 0.24. For K6W, the abundance fitness was -0.119 ± 0.086. In the case of F49C, the abundance fitness is reported as -0.953 ± 0.34. Q14L showed an abundance fitness of -0.407 ± 0.23. Work on T41A yielded an abundance fitness of -0.182 ± 0.1.
